Starred links: 1 amine or outer side, 2 acyl side, 3 side chain; linkers in the order of their positions; H or OH if unused. Non-standard residues stand in square brackets, D forms with d. Groups on a side chain read outwards from the residue. No end group written: not given here. *: point of attachment. β‑dimethylGln = β-dimethylglutamine, CC(C)(CC(N)=O)[C@H](N[*:1])C(=O)[*:2]; C20 diacid = O=C(O)CCCCCCCCCCCCCCCCCCC(=O)*; C18 diacid = O=C(O)CCCCCCCCCCCCCCCCC(=O)*; γGlu = O=C(O)[C@H](CCC(=O)[*:2])N[*:1]; αMeF = C[C@](N)(Cc1ccccc1)C(=O)O; NMeQ = CN[C@@H](CCC(N)=O)C(=O)O; AEEA = NCCOCCOCC(=O)O; Aib = CC(C)(N)C(=O)O
B1: Peptide 340 (peptide)
peptide: H[Aib]QGTFTSDYSK[αMeF]LDSRRAK([γGlu-C18 diacid])DFVQWLL[Aib]E-OH
modifications: N-terminus assumed
SMILES: CC(C)C[C@H](NC(=O)[C@H](Cc1c[nH]c2ccccc12)NC(=O)[C@H](CCC(N)=O)NC(=O)[C@@H](NC(=O)[C@H](Cc1ccccc1)NC(=O)[C@H](CC(=O)O)NC(=O)[C@H](CCCCNC(=O)CC[C@H](NC(=O)CCCCCCCCCCCCCCCCC(=O)O)C(=O)O)NC(=O)[C@H](C)NC(=O)[C@H](CCCNC(=N)N)NC(=O)[C@H](CCCNC(=N)N)NC(=O)[C@H](CO)NC(=O)[C@H](CC(=O)O)NC(=O)[C@H](CC(C)C)NC(=O)[C@](C)(Cc1ccccc1)NC(=O)[C@H](CCCCN)NC(=O)[C@H](CO)NC(=O)[C@H](Cc1ccc(O)cc1)NC(=O)[C@H](CC(=O)O)NC(=O)[C@H](CO)NC(=O)[C@@H](NC(=O)[C@H](Cc1ccccc1)NC(=O)[C@@H](NC(=O)CNC(=O)[C@H](CCC(N)=O)NC(=O)C(C)(C)NC(=O)[C@@H](N)Cc1c[nH]cn1)[C@@H](C)O)[C@@H](C)O)C(C)C)C(=O)N[C@@H](CC(C)C)C(=O)NC(C)(C)C(=O)N[C@@H](CCC(=O)O)C(=O)O
B2: Peptide 300 (peptide)
peptide: H[Aib]HGS[αMeF]TSDVSK[αMeF]LDSRAAK([AEEA-AEEA-γGlu-C18 diacid])D[αMeF]VQ[Aib]IAET-NH2
modifications: N-terminus assumed
SMILES: CC[C@H](C)[C@H](NC(=O)C(C)(C)NC(=O)[C@H](CCC(N)=O)NC(=O)[C@@H](NC(=O)[C@](C)(Cc1ccccc1)NC(=O)[C@H](CC(=O)O)NC(=O)[C@H](CCCCNC(=O)COCCOCCNC(=O)COCCOCCNC(=O)CC[C@H](NC(=O)CCCCCCCCCCCCCCCCC(=O)O)C(=O)O)NC(=O)[C@H](C)NC(=O)[C@H](C)NC(=O)[C@H](CCCNC(=N)N)NC(=O)[C@H](CO)NC(=O)[C@H](CC(=O)O)NC(=O)[C@H](CC(C)C)NC(=O)[C@](C)(Cc1ccccc1)NC(=O)[C@H](CCCCN)NC(=O)[C@H](CO)NC(=O)[C@@H](NC(=O)[C@H](CC(=O)O)NC(=O)[C@H](CO)NC(=O)[C@@H](NC(=O)[C@](C)(Cc1ccccc1)NC(=O)[C@H](CO)NC(=O)CNC(=O)[C@H](Cc1c[nH]cn1)NC(=O)C(C)(C)NC(=O)[C@@H](N)Cc1c[nH]cn1)[C@@H](C)O)C(C)C)C(C)C)C(=O)N[C@@H](C)C(=O)N[C@@H](CCC(=O)O)C(=O)N[C@H](C(N)=O)[C@@H](C)O
B3: Peptide 296 (peptide)
peptide: H[Aib]HGS[αMeF]TSDVSK[Aib]LDSRAAK([AEEA-AEEA-γGlu-C18 diacid])D[αMeF]VQ[Aib]IANT-NH2
modifications: N-terminus assumed
SMILES: CC[C@H](C)[C@H](NC(=O)C(C)(C)NC(=O)[C@H](CCC(N)=O)NC(=O)[C@@H](NC(=O)[C@](C)(Cc1ccccc1)NC(=O)[C@H](CC(=O)O)NC(=O)[C@H](CCCCNC(=O)COCCOCCNC(=O)COCCOCCNC(=O)CC[C@H](NC(=O)CCCCCCCCCCCCCCCCC(=O)O)C(=O)O)NC(=O)[C@H](C)NC(=O)[C@H](C)NC(=O)[C@H](CCCNC(=N)N)NC(=O)[C@H](CO)NC(=O)[C@H](CC(=O)O)NC(=O)[C@H](CC(C)C)NC(=O)C(C)(C)NC(=O)[C@H](CCCCN)NC(=O)[C@H](CO)NC(=O)[C@@H](NC(=O)[C@H](CC(=O)O)NC(=O)[C@H](CO)NC(=O)[C@@H](NC(=O)[C@](C)(Cc1ccccc1)NC(=O)[C@H](CO)NC(=O)CNC(=O)[C@H](Cc1c[nH]cn1)NC(=O)C(C)(C)NC(=O)[C@@H](N)Cc1c[nH]cn1)[C@@H](C)O)C(C)C)C(C)C)C(=O)N[C@@H](C)C(=O)N[C@@H](CC(N)=O)C(=O)N[C@H](C(N)=O)[C@@H](C)O
B4: Peptide 298 (peptide)
peptide: H[Aib]HGS[αMeF]TSDVSR[αMeF]LDSRAAK([AEEA-AEEA-γGlu-γGlu-C20 diacid])D[αMeF]VQ[Aib]IANT-NH2
modifications: N-terminus assumed
SMILES: CC[C@H](C)[C@H](NC(=O)C(C)(C)NC(=O)[C@H](CCC(N)=O)NC(=O)[C@@H](NC(=O)[C@](C)(Cc1ccccc1)NC(=O)[C@H](CC(=O)O)NC(=O)[C@H](CCCCNC(=O)COCCOCCNC(=O)COCCOCCNC(=O)CC[C@H](NC(=O)CC[C@H](NC(=O)CCCCCCCCCCCCCCCCCCC(=O)O)C(=O)O)C(=O)O)NC(=O)[C@H](C)NC(=O)[C@H](C)NC(=O)[C@H](CCCNC(=N)N)NC(=O)[C@H](CO)NC(=O)[C@H](CC(=O)O)NC(=O)[C@H](CC(C)C)NC(=O)[C@](C)(Cc1ccccc1)NC(=O)[C@H](CCCNC(=N)N)NC(=O)[C@H](CO)NC(=O)[C@@H](NC(=O)[C@H](CC(=O)O)NC(=O)[C@H](CO)NC(=O)[C@@H](NC(=O)[C@](C)(Cc1ccccc1)NC(=O)[C@H](CO)NC(=O)CNC(=O)[C@H](Cc1c[nH]cn1)NC(=O)C(C)(C)NC(=O)[C@@H](N)Cc1c[nH]cn1)[C@@H](C)O)C(C)C)C(C)C)C(=O)N[C@@H](C)C(=O)N[C@@H](CC(N)=O)C(=O)N[C@H](C(N)=O)[C@@H](C)O
B5: Peptide 325 (peptide)
peptide: HS[NMeQ]GS[αMeF]TSDVSK[αMeF]LDSRAAK([AEEA-AEEA-γGlu-C18 diacid])D[αMeF]VQ[Aib]IANT-NH2
modifications: N-terminus assumed
SMILES: CC[C@H](C)[C@H](NC(=O)C(C)(C)NC(=O)[C@H](CCC(N)=O)NC(=O)[C@@H](NC(=O)[C@](C)(Cc1ccccc1)NC(=O)[C@H](CC(=O)O)NC(=O)[C@H](CCCCNC(=O)COCCOCCNC(=O)COCCOCCNC(=O)CC[C@H](NC(=O)CCCCCCCCCCCCCCCCC(=O)O)C(=O)O)NC(=O)[C@H](C)NC(=O)[C@H](C)NC(=O)[C@H](CCCNC(=N)N)NC(=O)[C@H](CO)NC(=O)[C@H](CC(=O)O)NC(=O)[C@H](CC(C)C)NC(=O)[C@](C)(Cc1ccccc1)NC(=O)[C@H](CCCCN)NC(=O)[C@H](CO)NC(=O)[C@@H](NC(=O)[C@H](CC(=O)O)NC(=O)[C@H](CO)NC(=O)[C@@H](NC(=O)[C@](C)(Cc1ccccc1)NC(=O)[C@H](CO)NC(=O)CNC(=O)[C@H](CCC(N)=O)N(C)C(=O)[C@H](CO)NC(=O)[C@@H](N)Cc1c[nH]cn1)[C@@H](C)O)C(C)C)C(C)C)C(=O)N[C@@H](C)C(=O)N[C@@H](CC(N)=O)C(=O)N[C@H](C(N)=O)[C@@H](C)O
B6: Peptide 324 (peptide)
peptide: HS[β‑dimethylGln]GS[αMeF]TSDVSK[αMeF]LDSRAAK([AEEA-AEEA-γGlu-C18 diacid])D[αMeF]VQ[Aib]IANT-NH2
modifications: N-terminus assumed
SMILES: CC[C@H](C)[C@H](NC(=O)C(C)(C)NC(=O)[C@H](CCC(N)=O)NC(=O)[C@@H](NC(=O)[C@](C)(Cc1ccccc1)NC(=O)[C@H](CC(=O)O)NC(=O)[C@H](CCCCNC(=O)COCCOCCNC(=O)COCCOCCNC(=O)CC[C@H](NC(=O)CCCCCCCCCCCCCCCCC(=O)O)C(=O)O)NC(=O)[C@H](C)NC(=O)[C@H](C)NC(=O)[C@H](CCCNC(=N)N)NC(=O)[C@H](CO)NC(=O)[C@H](CC(=O)O)NC(=O)[C@H](CC(C)C)NC(=O)[C@](C)(Cc1ccccc1)NC(=O)[C@H](CCCCN)NC(=O)[C@H](CO)NC(=O)[C@@H](NC(=O)[C@H](CC(=O)O)NC(=O)[C@H](CO)NC(=O)[C@@H](NC(=O)[C@](C)(Cc1ccccc1)NC(=O)[C@H](CO)NC(=O)CNC(=O)[C@@H](NC(=O)[C@H](CO)NC(=O)[C@@H](N)Cc1c[nH]cn1)C(C)(C)CC(N)=O)[C@@H](C)O)C(C)C)C(C)C)C(=O)N[C@@H](C)C(=O)N[C@@H](CC(N)=O)C(=O)N[C@H](C(N)=O)[C@@H](C)O

Columns and labels:
human glucagon receptor = human glucagon receptor (human, UniProt P47871 26-477); test: cell-based or functional assay
human GLP-1 receptor = human GLP-1 receptor (human, UniProt P43220 24-463); test: cell-based or functional assay

human glucagon receptor, sequence (P47871 26-477): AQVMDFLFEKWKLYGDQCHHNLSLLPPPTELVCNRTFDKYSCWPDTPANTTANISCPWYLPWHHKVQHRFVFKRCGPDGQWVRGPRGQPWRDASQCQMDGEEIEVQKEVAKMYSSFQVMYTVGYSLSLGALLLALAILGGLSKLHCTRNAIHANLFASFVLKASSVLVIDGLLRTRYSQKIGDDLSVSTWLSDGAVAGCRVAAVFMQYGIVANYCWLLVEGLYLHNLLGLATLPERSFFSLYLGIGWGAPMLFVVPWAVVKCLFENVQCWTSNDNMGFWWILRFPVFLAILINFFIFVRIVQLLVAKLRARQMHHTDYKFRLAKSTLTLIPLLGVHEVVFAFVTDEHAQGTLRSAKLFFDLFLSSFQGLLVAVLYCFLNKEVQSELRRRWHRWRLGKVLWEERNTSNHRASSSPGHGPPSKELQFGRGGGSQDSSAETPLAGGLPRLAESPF

Binder	hGluc-R EC50 (pM), cAMP (human glucagon receptor)	hGLP-1R EC50 (pM), cAMP (human GLP-1 receptor)
H[Aib]QGTFTSDVSK[αMeF]LDSRAAKDFVQWIANT-NH2 (not fully specified (residue 20)) [Peptide 343]	19600 pM	198 pM
H[Aib]QGS[αMeF]TSDVSK[αMeF]LDSRAAK([AEEA-AEEA-γGlu-γGlu-C20 diacid])D[αMeF]VQ[Aib]IANT-NH2 [Peptide 322]	> 24700 pM	68.3 pM
B1	94.7 pM	312 pM
B2	18.4 pM	19.7 pM
B3	3250 pM	64.1 pM
H[Aib]QGTFTSDVSK[αMeF]LDSRAAK([AEEA-AEEA-γGlu-C18 diacid])DFVQ[Aib]LVAT-NH2 (not fully specified) [Peptide 315]	5850 pM	18.1 pM
B4	573 pM	75.5 pM
H[Aib]HGS[αMeF]TSDVSK[αMeF]LDSRAAK([AEEA-AEEA-γGlu-γGlu-C20 diacid])D[αMeF]VQ[Aib]IANT-NH2 (not fully specified) [Peptide 305]	155 pM	211 pM
H[Aib]HGS[αMeF]TSDVSK[αMeF]LDSRAAK([AEEA-AEEA-γGlu-γGlu-C20 diacid])D[αMeF]IA[Aib]IAET-NH2 [Peptide 302]	271 pM	151 pM
H[Aib]HGS[αMeF]TSDVSK[αMeF]LDSRAAK([AEEA-AEEA-γGlu-γGlu-C20 diacid])D[αMeF]VQ[Aib]IANT-OH [Peptide 304]	687 pM	239 pM
B5	> 25500 pM	929 pM
H[Aib]QGTFTSDVSK[αMeF]LDSRAAK([AEEA-AEEA-γGlu-C18 diacid])DFVQWIANT-NH2 (not fully specified) [Peptide 318]	12000 pM	55.2 pM
B6	1930 pM	1330 pM
